Measurements reported in PMC314469, “Protein Interaction Networks by Proteome Peptide Scanning” (PLoS Biology, 2004).

T1: amphyphisin SH3 (AMPH_HUMAN), P49418
T1 chain: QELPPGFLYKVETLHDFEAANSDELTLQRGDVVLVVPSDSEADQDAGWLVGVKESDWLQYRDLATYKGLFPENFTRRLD


Columns and labels:
[1] = molecular target: endophilin SH3 (SH3G2_HUMAN), Q99962; test: SPOT array
[2] = molecular target: T1, amphyphisin SH3 (AMPH_HUMAN), P49418; test: SPOT array

Row | Binder | normalised SPOT signal, Boehringer light units (BLU); mean over the file's lines of this peptide [1] | normalised SPOT signal, Boehringer light units (BLU); mean over the file's lines of this peptide [2]
1 | SSGGFRRPEELGRV [P09529 57-70] | 11.4 | 41.8
2 | SSTPPPRPPVLEEW [Q9UL65 458-472] | 110 | 29.8
3 | SGGRPLRPPHPVAK [O76081 141-155] | 6230 | 718
4 | AWVSPRRPDEEQRP [Q96MG2 305-318] | 398 | 57.9
5 | SSNFPRRPDSGDVT [Q9BYH1 392-405] | 67.7 | 29.9
6 | SFTALRRPSLRREA [O76050 230-243] | 27.6 | 65.1
7 | SGAEIKRPGASVKV [O95978 26-39] | 32.7 | 34.4
8 | SDFSPSKPPSGPGK [Q9BZH6 185-199] | 63.8 | 52
9 | SSRAPPRPAKTTDP [Q9P2Q1 364-377] | 279 | 378
10 | SFLTLTRPDRALVR [Q9H6A9 133-146] | 211 | 894
11 | SDREPTRPPRPILQ [Q9NQ53 86-99] | 52.9 | 3890
12 | SGGRIRRPVNVPID [P22001 113-126] | 104 | 29
13 | SEGSLTRPKKAIPP [O14810 90-103] | 68.4 | 0
14 | SFAYPNRPDRPVLK [Q03519 474-487] | 245 | 1280
15 | SGEQLPRPTRGRMR [Q9H254 103-116] | 210 | 873
16 | SGAPPTKPPTTPVG [P54259 267-281] | 65.4 | 41.3
17 | SSKNIYRPDKFLQS [P28907 274-287] | 63.6 | 34
18 | SFLSLRRPWNWIAH [O15229 449-462] | 500 | 57.7
19 | SGGIPKRPSSPVIS [Q96T17 281-294] | 1080 | 46.1
20 | SGGRLRRPVNVPLD [Q09470 98-111] | 44 | 33.6
21 | SFQSPTRPPLASPT [Q9UGJ0 207-221] | 161 | 27.7

Row | Binder | normalised SPOT signal, Boehringer light units (BLU); mean over the file's lines of this peptide [1] | normalised SPOT signal, Boehringer light units (BLU); mean over the file's lines of this peptide [2]
22 | SESRIRRPMNAFMV [Q9BT81 41-54] | 32.9 | 0
23 | SGGRLKRPVNVPFD [P22459 237-250] | 37.8 | 11.4
24 | SFLRLRRPWNWIAH [Q9H1Y5 130-143] | 351 | 120
25 | SGGRLRRPVNVSLD [P22460 181-194] | 54.6 | 56.9
26 | SGGRPIKPPKKDLE [Q15059 280-294] | 66 | 48.5
27 | SEAAPRRPEATAAP [Q9H677 423-436] | 16.1 | 26.1
28 | SEDPLKRPVVYVKG [Q9ULT6 127-140] | 58.8 | 21.3
29 | SGGKIRRPANVPID [Q16322 147-160] | 94.6 | 0
30 | AWQQLRRPEASETL [Q9BTX9 18-31] | 15.9 | 29.3
31 | SGGRLRRPAHVPLD [Q9BYS4 74-87] | 24.7 | 20.8
32 | SGERLPRPDKGKMR [Q08043 87-100] | 47.7 | 91.2
33 | SFSHLKRPQQGAGN [O43190 163-176] | 32.4 | 26.3
34 | SSKIFRRPSLPSIS [Q13370 310-323] | 40.4 | 12.2
35 | SFSELVRPFKSNKS [O00529 218-231] | 106 | 32.8
36 | SSQRPGRPARVALP [P98161 2194-2207] | 13500 | 2220
37 | SEDDFYRPSREQPL [Q9Y4G2 445-458] | 92.5 | 142
38 | SDSKPKRPQPSREI [Q96JP2 1105-1118] | 44.6 | 13.6
39 | SEPHIKRPMNAFMV [Q9BXQ5 597-610] | 63.7 | 32
40 | SGDQLKRPFGAFRS [Q9Y6H5 853-866] | 75.5 | 20.6
41 | SAGLPGKPPAIQAS [O95428 427-441] | 50.3 | 42.4
42 | AWARPPKPPTFGEF [Q9Y3X0 319-333] | 716 | 21.8
